Laboratory results: patent US8435786

Target: Fas receptor (CD95) on mouse bone marrow cells (mouse) (UniProt P25446)
Assay: cell-based or functional assay

Sequence of streptavidin-FasL chimeric protein (P22629 37-163, change not shown): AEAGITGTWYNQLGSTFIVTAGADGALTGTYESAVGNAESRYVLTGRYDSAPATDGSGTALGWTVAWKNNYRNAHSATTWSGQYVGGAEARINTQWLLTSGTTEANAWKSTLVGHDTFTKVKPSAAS
Sequence of Fas receptor (CD95) on mouse bone marrow cells (mouse) (P25446 22-327): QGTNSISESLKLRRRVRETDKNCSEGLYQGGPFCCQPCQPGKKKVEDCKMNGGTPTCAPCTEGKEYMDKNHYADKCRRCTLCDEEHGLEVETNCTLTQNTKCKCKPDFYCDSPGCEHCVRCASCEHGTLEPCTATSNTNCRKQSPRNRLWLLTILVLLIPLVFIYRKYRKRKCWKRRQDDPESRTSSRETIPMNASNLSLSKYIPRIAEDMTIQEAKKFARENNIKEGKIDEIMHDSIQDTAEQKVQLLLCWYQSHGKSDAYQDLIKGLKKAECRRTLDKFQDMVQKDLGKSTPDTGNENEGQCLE

- clonogenic activity of STR cells at 500 ng/ml FasL protein: 26 % increase
- clonogenic activity of STR cells with FasL and inhibition of caspase-3 (DEVD): 75 % increase
- clonogenic activity of lin- BMC (CFU assay) (% stimulation at ~500 ng/ml FasL): 45
Substance: streptavidin-FasL chimeric protein (from UniProt P22629 37-163) (ligand)
- apoptotic death of wBMC after 24 hours with FasL protein (annexin-V, 7AAD) (% of the cells): 40
